Results published in patent US20230405046A1.

biological target: HLA-A*01:01 presenting KRAS-Q61H 55-64 (…) (human); assay: cell-based or functional assay

Row | Binder | minimal recognized peptide concentration (functional avidity, IFNγ ELISPOT)
1 | TCRCD8-EL8-LM7 #1 (TCR) TCR alpha: AQKITQTQPGMFVQEKEAVTLDCTYDTSDPSYGLFWYKQPSSGEMIFLIYQGSYDQQNATEGRYSLNFQKARKSANLVISASQLGDSAMYFCAMREGQDSSYKLIFGSGTRLLVRPDIQNPDPAVYQLRDS TCR beta: MGTRLLCCVAFCLLGAGPVDSGVTQTPKHLITATGQRVTLRCSPRSGDLSVYWYQQSLDQGLQFLIQYYNGEERAKGNILERFSAQQFPDLHSELNLSSLELGDSALYFCASSVLGPNTEAFFGQGTRLTVVEDLNKVFPPEVAVFE | 10 nM
2 | TCRCD8-EL8-LM7 #4 (TCR) TCR alpha: AQKVTQAQTEISVVEKEDVTLDCVYETRDTTYYLFWYKQPPSGELVFLIRRNSFDEQNEISGRYSWNFQKSTSSFNFTITASQVVDSAVYFCALSNAGGTSYGKLTFGQGTILTVHPNIQNPDPAVYQLRDS TCR beta: EAQVTQNPRYLITVTGKKLTVTCSQNMNHEYMSWYRQDPGLGLRQIYYSMNVEVTDKGDVPEGYKVSRKEKRNFPLILESPSPNQTSLYFCASSRRLPPPYGYTFGSGTRLTVVEDLNKVFPPEVAVFE | 10 nM
3 | TCRCD8-EL8-LM7 #7 (TCR) TCR alpha: AQKVTQAQTEISVVEKEDVTLDCVYETRDTTYYLFWYKQPPSGELVFLIRRNSFDEQNEISGRYSWNFQKSTSSFNFTITASQVVDSAVYFCALSESSNTGKLIFGQGTTLQVKPDIQNPDPAVYQLRDS TCR beta: EAQVTQNPRYLITVTGKKLTVTCSQNMNHEYMSWYRQDPGLGLRQIYYSMNVEVTDKGDVPEGYKVSRKEKRNFPLILESPSPNQTSLYFCASSRREPPPYGYTFGSGTRLTVVEDLNKVFPPEVAVFE | 10 nM
4 | TCRCD8-EL8-LM7 #8 (TCR) TCR alpha: AQKITQTQPGMFVQEKEAVTLDCTYDTSDPSYGLFWYKQPSSGEMIFLIYQGSYDQQNATEGRYSLNFQKARKSANLVISASQLGDSAMYFCAMREIRDSSYKLIFGSGTRLLVRPDIQNPDPAVYQLRDS TCR beta: MGTRLLCCVAFCLLGAGPVDSGVTQTPKHLITATGQRVTLRCSPRSGDLSVYWYQQSLDQGLQFLIQHYNGEERAKGNILERFSAQQFPDLHSELNLSSLELGDSALYFCASSPAGPNTEAFFGQGTRLTVVEDLNKVFPPEVAVFE | 100 nM
